Experimental data from US20070292434A1 (VIB VZW, published 2007).
Residue numbers refer to the chain shown, from its start.

Tests used:
[1] = biological target: the molecule itself; assay: non-reducing anti-FLAG Western blot of COS-1 supernatant (self-association)
From the text: Panel A: The plasmid encoding FNIII-FLAG-His was transfected in COS-1 cells. Supernatant was subjected to Western blot analysis under reducing (R) or non-reducing (NR) conditions with an anti-FLAG antibody.
Panel A: Plasmid pMET7 CRH2-FLAG-His was transiently transfected in COS-1 cells. Supernatant was subjected to Western blot analysis with an anti-FLAG antibody under reducing (R) and non-reducing (NR) conditions.
We next analyzed the ligand-independent clustering of the FNIII domains in more detail. Constructs were generated to produce secreted forms of the FNIII domains, either as a FLAG-His-, or as a SEAP-FLAG-tagged protein. When FNIII-FLAG-His was expressed in COS-1 cells and analyzed under non-reducing conditions, di-, tri- and even higher order clusters were observed (FIG. 2, panel A). This clustering is independent of protein concentration since transfection with smaller amounts of expression vector gave the same clustering pattern. To confirm this FNIII-clustering, we set up a His/SEAP co-precipitation experiment. In this assay, FNIII-SEAP-FLAG proteins were co-expressed with FNIII-FLAG-His, or with empty vector as a negative control. Supernatants were analyzed in a precipitation experiment with a Ni²⁺ affinity resin. Co-precipitated SEAP activity reflects interaction between the proteins. FIG. 2, panel B clearly confirms homotypic interaction of the FNIII domain.

[2] = biological target: the molecule itself; assay: non-reducing anti-FLAG Western blot of secreted protein (self-association)
[3] = biological target: the molecule itself; assay: non-reducing anti-FLAG Western blot of COS-1 lysates (self-association)
From the text: Panel A: Plasmids encoding (1) mLR ΔCRH1, ΔIg, ΔCRH2; (2) mLR ΔCRH1, ΔIg, ΔCRH2 cys672ser; (3) mLR ΔCRH1, ΔIg, ΔCRH2 cys751ser; (4) mLR ΔCRH1, ΔIg, ΔCRH2 cys672,751ser were transiently transfected in COS-1 cells. Transfected cells were lyzed in a reducing (R) or non-reducing (NR) loading buffer. Lysates were loaded on a SDS-PAGE gel, blotted to a nitro-cellulose membrane and subjected to Western blot with an anti-FLAG antibody.

B1: FNIII-FLAG-His (receptor, murine, UniProt P48356 637-839, looked up, not shown: small tags and cut ends)
chain: PMRGPEFWRKMDGDVTKKERNVTLLWKPLTKNDSLCSVRRYVVKHRTAHNGTWSEDVGNRTNLTFLWTEPAHTVTVLAVNSLGASLVNFNLTFSWPMSKVSAVESLSAYPLSSSCVILSWTLSPDDYSLLYLVIEWKILNEDDGMKWLRIPSNVKKFYIHDNFIPIEKYQFSLYPVFMEGVGKPKIINGFTKDAIDKQQNDAG
notes: domain: FNIII domains; Secreted from COS-1 or Hek293T cells; runs as di-, tri- and higher order disulphide-linked clusters under non-reducing conditions; also called mLR FNIII-FLAG-His; soluble FNIII domains
- binding result [1]: binds

B2: FNIII-FLAG-His cys751ser (receptor, murine, UniProt P48356 637-839, looked up, not shown: small tags and cut ends)
chain: B1 chain with C115S
notes: domain: FNIII domains
- binding result [2]: binds

B3: FNIII-FLAG-His cys672ser (receptor, murine, UniProt P48356 637-839, looked up, not shown: small tags and cut ends)
chain: B1 chain with C36S
notes: domain: FNIII domains
- binding result [2]: binds

B4: mLR ΔCRH1, ΔIg, ΔCRH2 cys751ser (receptor, murine, UniProt P48356 637-1162, looked up, not shown: small tags and cut ends)
chain: PMRGPEFWRKMDGDVTKKERNVTLLWKPLTKNDSLCSVRRYVVKHRTAHNGTWSEDVGNRTNLTFLWTEPAHTVTVLAVNSLGASLVNFNLTFSWPMSKVSAVESLSAYPLSSSSVILSWTLSPDDYSLLYLVIEWKILNEDDGMKWLRIPSNVKKFYIHDNFIPIEKYQFSLYPVFMEGVGKPKIINGFTKDAIDKQQNDAGLYVIVPIIISSCVLLLGTLLISHQRMKKLFWDDVPNPKNCSWAQGLNFQKPETFEHLFTKHAESVIFGPLLLEPEPISEEISVDTAWKNKDEMVPAAMVSLLLTTPDPESSSICISDQCNSANFSGSQSTQVTCEDECQRQPSVKYATLVSNDKLVETDEEQGFIHSPVSNCISSNHSPLRQSFSSSSWETEAQTFFLLSDQQPTMISPQLSFSGLDELLELEGSFPEENHREKSVCYLGVTSVNRRESGVLLTGEAGILCTFPAQCLFSDIRILQERCSHFVENNLSLGTSGENFVPYMPQFQTCSTHSHKIMENKMCDLTV
notes: domain: FNIII, transmembrane and cytoplasmic domains (CRH1, Ig and CRH2 deleted); also called single cys751ser mutant receptor
- binding result [3]: binds

B5: mLR ΔCRH1, ΔIg, ΔCRH2 cys672ser (receptor, murine, UniProt P48356 637-1162, looked up, not shown: small tags and cut ends)
chain: B4 chain with C36S, S115C
notes: domain: FNIII, transmembrane and cytoplasmic domains (CRH1, Ig and CRH2 deleted)
- binding result [3]: binds

B6: CRH2-FLAG-His (receptor, murine, UniProt P48356 428-635, looked up, not shown: small tags and cut ends)
chain: VNINISCETDGYLTKMTCRWSPSTIQSLVGSTVQLRYHRRSLYCPDSPSIHPTSEPKNCVLQRDGFYECVFQPIFLLSGYTMWIRINHSLGSLDSPPTCVLPDSVVKPLPPSNVKAEITVNTGLLKVSWEKPVFPENNLQFQIRYGLSGKEIQWKTHEVFDAKSKSASLLVSDLCAVYVVQVRCRRLDGLGYWSNWSSPAYTLVMDVK
notes: domain: CRH2; Expressed as a reduction-sensitive oligomeric complex; also called mLR CRH2-FLAG-His; soluble CRH2 domain
- binding result [1]: binds
